Data: the nanobody polyreactivity screen of Harvey et al. (2022)

test: yeast display, Sf9 membrane polyspecificity reagent, FACS + sequencing; frameworks hold sequencing errors
Procedure, shortened: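 Nanobodies came from a synthetic yeast display library in Saccharomyces cerevisiae BJ5465, induced with galactose for 36–48 hours and stained for 1 hour at 4 °C with 10% biotinylated, detergent-solubilized Sf9 membrane reagent. Cells were enriched on streptavidin microbeads and then FACS-sorted, with low and high (top ~1%) gates set on anti-HA fluorescence for expression and streptavidin fluorescence for reagent binding. Each polyreactivity label reflects the gate a clone came from. Genes were amplified by colony PCR, sequenced by MiSeq 2 × 250 and filtered by CDR length.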

| Sequence | polyreactivity (PSR sort gate) |
| --- | --- |
| QVQLVESGGGLVQAGGSLRLSCAASGFIYYAMGWYRQAPGKERELVAAISRGGTTYYADSVKGRFTISRDNAKNTVYLQMNSLKPEVTAVSYCNAVGYRAVGYKTGYARYGYWGQGTQVTVSS | high polyreactivity |
| QVQLVESGGGLVQAGGSLRLSCAASGFLFYYNAMGWYRQAPGKERELVATSTSGGSTNYADSVKGRFTISRDNAKNTVYLQMNSLKPEDTAVYYCAAGHSWVYGYDYWGQGTQVTVSS | low polyreactivity |
| QVQLVESGGGLVQAGGSLRLSCAASGFMFSRYGMGWYRQAPGKERELVAAISGSCGSTYYADSVKGRFTISRDNAKNTVYLQMKSLKPEDTAFYLCATAYSWSNSDWFAYSYDYWGHGTQVTVSS | low polyreactivity |
| QVQLVESGGGLVQAGGSLRLSCAASGFNFDGNAMGWYRQAPGKERELVAAISSSSGRTRYADSVTGRFSISRDNAKNTVYLQMNSLKPEDTAVYYCAARRQSTRPGFYYWGQGTQVTVSS | high polyreactivity |
| QVQLVESGGGLVQAGGSLRLSCAASGFNFEAYTMGWYRQAPGKERELVASIDWDGGSTYYADSVKGRFTISRDNAKNTVYLQMNSLKPEDTAVYYCAADSRQYDELGDYDYWGQGTQVTVSS | low polyreactivity |
| QVQLVESGGGLVQAGGSLRLSCAASGFNFEVNAMGWYRQAPGKERELVAAITTDGSTNYADSVNGRFSSSRDNAKNTVYIQMTSLKPEDTAVYYCAARVQHYLGTDDYWGQGTQVTVSS | low polyreactivity |
| QVQLVESGGGLVQAGGSLRLSCAASGFNFGYYAMGWYRQAPGKERELVAAITSRGGSTYYADSVKGRFTISRDNAKNTDYLQMNSLKPEDTAVYYLAAYSQYLKRDYWGQGTQVTVSS | high polyreactivity |
| QVQLVESGGGLVQAGGSLRLSCAASGFNFIDYAMGWYRQAPGKERELVAAITSSGGRTYYADSVKGRFTISRDNAKITVYLQMTSLKPEDTAVYYCAARLPGYVRIYDYWGQGTQVTVSS | high polyreactivity |
| QVQLVESGGGLVQAGGSLRLSCAASGFNFIKYAMGWSRQSPGKESELVAAISFRGGRTYYADSVKGRITISRDNAKNTVYLQMNSLKPEDTAVYYCAAETRDYSEGYYWGQGTQVTVSS | high polyreactivity |
| QVQLVESGGGLVQAGGSLRLSCAASGFNFLTYAMGWYRQATGKESELVAAISSSGGRTTYADSVKGRFTISRDNAKNTVYLQMNSLKPEDTAVYYCAVEDYTIVLDYESWGQGTQVTVSS | high polyreactivity |
| QVQLVESGGGLVQAGGSLRLSCAASGFNFPRYTMGWSRKAPGKEREFVAGITLRGGSTYYADSVKGRFTISRANAKNTVYLQMNSLKPDETAVYYCARVISRGRSFGIGYDYWGQATQVTVSS | low polyreactivity |
| QVQLVESGGGLVQAGGSLRLSCAASGFNFPYNAMGRYRQAPGKERELVAAITSGSNTYYADSVKGRFTISRDNAKNTVYLQMNSLKPEDTAVYYCAARGHGAYGYWGQGTQVTVSS | low polyreactivity |
| QVQLVESGGGLVQAGGSLRLSCAASGFNFRLYAMGWYRQAPGKERELVATITQRGGRTYYADSVKGRFTISLDNAHNTVYLQMNSLKPEDTAVYYCAATWTVTTGTKFDYWGQGTQVTVAS | high polyreactivity |
| QVQLVESGGGLVQAGGSLRLSCAASGFNFSSYAMGWSRQAPGKERELVAAISGSGGTTYYADSVKGRFTISRDNAKNTVYLQMNSQKPEDTAVYYCATRLGLVITKYGYDYWGQGTQVTVSS | high polyreactivity |
| QVQLVESGGGLVQAGGSLRLSCAASGFNFYSYAMGWYKQAPGKERELVAVTYADSVKGRFTISRDNAQNTVYLQMNSLKPEDTAVYYCAALEYLDGPLSDYWGQGTQVTVSS | low polyreactivity |
| QVQLVESGGGLVQAGGSLRLSCAASGFNIGDYAMGWYRQAPGKERELVAAITISGGGTYYADSVKGRFTISRDNAKNTVYLQMNSLKPEDTAVYYCAAGYYDLNLDTDFGFDYWGQGTQVTVSS | low polyreactivity |
| QVQLVESGGGLVQAGGSLRLSCAASGFNSDWYAMGWSRQAPGKERELVATIDWIGGSTYADSVKGRFTISRDNAKNTVFLQMNSLKPEDTAVYYCAADSYFIAWYGAHYAYDYWGQGTQVTVSS | low polyreactivity |
| QVQLVESGGGLVQAGGSLRLSCAASGFSFHRYAMGWYRQAPGKERELVAGITRRSGSTFYADSVKGRFTISRDNAKNTVYLQMNRLKPEDSAVYYCAATVPGLHWIYDYWGQGTQVTVSS | high polyreactivity |
| QVQLVESGGGLVQAGGSLRLSCAASGFTCAWYTMGWYREAPGKERELVAAISLNGGSTYYADSVKGRFTISRDNAKNTVYLQMNRLKPEDTAVYYCAKGYRWPYYPYDYWGQGTQVTVSS | low polyreactivity |
| QVQLVESGGGLVQAGGSLRLSCAASGFTCKKYAMGWSRQAPGKERDLVASITWYGGSTSYADSVKGRFTISRDNANNTVYLQMNSLKPEDTAVYYCAAATFVYRLRYNRFDYWGQGTQVTVSS | high polyreactivity |
| QVQLVESGGGLVQAGGSLRLSCAASGFTCSQNAMGWYRQAPGKERELVAAITGHGGSTYYADSVKGRFTISRDNAKNTVYLQMNSLKPEDTAVYYCAADVYAVHAPQSDYWTKYDYWGQGTQVTVSS | low polyreactivity |

| Sequence | polyreactivity (PSR sort gate) |
| --- | --- |
| QVQLVESGGGLVQAGGSLRLSCAASGFTFAAYAMGWYRQAPVKERELVAAITNGGSTKYADSVKGRFTISRDNAKNTVYVQMNSLKPEDTSVYYCNADGFDLNVTNVSALEYDSWGQGTQVTVSS | low polyreactivity |
| QVQLVESGGGLVQAGGSLRLSCAASGFTFAFYTMGWSRPAPGKESELVAGITRSGTNTYYADSLTGRFTISRDNAKNTVYLLLNSLTPEDTAVYYCAAAIRPGMDYWGQGTQVTVSS | high polyreactivity |
| QVQLVESGGGLVQAGGSLRLSCAASGFTFAGNAMGWYRPAPGKERELVAAISRRGGSTYYADSVKGRFTISRDNAKNTVYLQMNSLKPEDTAVYYCAAVYPYDYDYWGQGTQVTVSS | high polyreactivity |
| QVQLVESGGGLVQAGGSLRLSCAASGFTFAGYAMGWSRQAPGKERELVAGIRSSGARTYYADSVKGRFTISRDNAKNTVYLQMNSLKPEDTAVDYCAKTDGFYRGYGYWGQGTQVTVSS | low polyreactivity |
| QVQLVESGGGLVQAGGSLRLSCAASGFTFAKYAMGWYRQAPGKERELVAAISSSGGRTYYADSVKGRFTISRDNAKNTVYLQMNSLKPEDTAVYYCAAAIRYRNYVYLYDYWGQGTQVTVSS | high polyreactivity |
| QVQLVESGGGLVQAGGSLRLSCAASGFTFALYAMGWYRQAPGKERELVASISWSGGSTYYADSVKGRFTISRDNAKNTVYLQMNSLKPEDTAVYYCAACGRYYGGAYTRYYYWGQGTQVTVSS | high polyreactivity |
| QVQLVESGGGLVQAGGSLRLSCAASGFTFANNAMGWYRQAPGKERELVAAISRSGGSTYYADSVKGRFTISRDNAKNTVYLQMNSLKPEDTAVYYCAKAVFYGPCERNYGLDYWGQGTQVTVSS | high polyreactivity |
| QVQLVESGGGLVQAGGSLRLSCAASGFTFANYAMGWYRQAPGKERELVAAITRTAGSTYYADSVKGRFTISRDNAKNTVYLQMNSLKPEDTAVYYCAVEGIYRWYDYSWYYTSTYDYWGQGTQVTVSS | low polyreactivity |
| QVQLVESGGGLVQAGGSLRLSCAASGFTFAPYVMGWYRQAPGKETELVAAIPTRGGSTYYADSVKGRFTISRDNAKNTVYLQMNSLKPEDTAVYYFAAQRRYDTADHGYWGQGTQVTVSS | high polyreactivity |
| QVQLVESGGGLVQAGGSLRLSCAASGFTFASNAMGWYRQAPGKERELVAGISRTGTTTYYADSVKGRFTISRDNAKNTVYLQMNSLKPEDTAVYYCNKAFSHQIYATGMGYWGQGTQVTVSS | high polyreactivity |
| QVQLVESGGGLVQAGGSLRLSCAASGFTFASNCMGWYRQAPGKERELVAVIDWSDDSTYYADSVKGRFTISRDNAKNTVYLQMNSLKPEDTAVYYCKADVWWGGYDYWGQGTQVNVSS | low polyreactivity |
| QVQLVESGGGLVQAGGSLRLSCAASGFTFAVYAMGWYRQAPGKERELVAAINRGGGSTYADSVKGRFTISRDTAKNTVYLQMNSLKPEDTAVYYCAARVYGTRKINYSWGQGTQVTVSS | high polyreactivity |
| QVQLVESGGGLVQAGGSLRLSCAASGFTFAVYTMGRYIQGPGKERELVAAITASGGSTHYADSVKGRFTISRDNAKNTVYIQMNSLKPEDTAVYYCAARPRLYQYYYWGQGTQVTVSS | high polyreactivity |
| QVQLVESGGGLVQAGGSLRLSCAASGFTFAVYTMGWYRQAPGKERELVAAITASGGSMHYADSVKGRFTISRDNVKNTVYLQMNSLKPEDTAVYYCAARPRLYQYYYWGQGTQVTVSS | high polyreactivity |
| QVQLVESGGGLVQAGGSLRLSCAASGFTFAYNAMGWYRQAPGKERELVAAISRSGARTYYADSVKGRFTISRDNAKNTVYLQMNSLKPEDTAVYYCNARDYTLYGYWGQGTQVTVSS | high polyreactivity |
| QVQLVESGGGLVQAGGSLRLSCAASGFTFAYNAMGWYRQAPGKERELVATISWSGGSTYYADSVKGRFTISRDNAKNTVYLQMNSLKPEDTAVYYCATTIFYTYYGLYDYWGQGTQVTVSS | high polyreactivity |
| QVQLVESGGGLVQAGGSLRLSCAASGFTFAYYAMGWYRQAPGKEREFVAVITWSGGDTYYADSVKGRFTISRDNAKNTVYLQMNSLKPEDTAVSYCAATYWGTRRIYAYGYWGQGTQVTVSS | high polyreactivity |
| QVQLVESGGGLVQAGGSLRLSCAASGFTFAYYAMGWYRQAPGKERELVAAISSRGGSTYYADSVKGRFTISRDNAKNTVYLQMNSLKPEDTAVYYCAAEFGLWPYEYGYWGQGTQVTVSS | high polyreactivity |
| QVQLVESGGGLVQAGGSLRLSCAASGFTFAYYDMGWYRQAPGKERELVAAISQSGGSTYYADSVKGRFTISRDNAKNTVYLQMKSLKPEDTAVYYCNAYAYTQSYEYDYWGQGTQVTVSS | high polyreactivity |
| QVQLVESGGGLVQAGGSLRLSCAASGFTFAYYTMGWYRQAPGKERELVAAINWSGGSTYYADSVKGRFTISRDNAKNTVYLQMNSLKPEDTAVYYCAAKSYWWATYEYWGQGTQVTVSS | high polyreactivity |
